# Data reported in CN111349168A (DONGGUAN PENGZHI BIOTECHNOLOGY CO LTD, dated 2020).
# Molecular target: T1, CKMB(PAJ18) (human, UniProt P06732 1-381; P12277 1-381)
# T1 construct: Antigen reagent named only as CKMB(PAJ18); Its source and construct are not described; also called 杂化型肌酸激酶同工酶; CKMB抗原
# Test: biolayer interferometry, antibody captured on AMC sensor, CKMB in solution
# T1 sequence (P06732 whole entry, chain 1 of 2): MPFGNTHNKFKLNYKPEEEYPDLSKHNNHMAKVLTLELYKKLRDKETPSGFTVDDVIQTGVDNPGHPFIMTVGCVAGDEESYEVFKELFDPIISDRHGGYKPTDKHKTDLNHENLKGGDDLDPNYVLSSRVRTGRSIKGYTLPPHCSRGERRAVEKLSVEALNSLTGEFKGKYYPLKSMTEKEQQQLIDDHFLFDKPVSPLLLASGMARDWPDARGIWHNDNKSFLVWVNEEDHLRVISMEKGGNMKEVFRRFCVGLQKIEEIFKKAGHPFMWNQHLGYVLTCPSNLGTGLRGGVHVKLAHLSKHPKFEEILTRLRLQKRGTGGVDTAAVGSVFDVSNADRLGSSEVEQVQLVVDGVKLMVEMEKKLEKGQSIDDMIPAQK
# T1 sequence (P12277 whole entry, chain 2 of 2): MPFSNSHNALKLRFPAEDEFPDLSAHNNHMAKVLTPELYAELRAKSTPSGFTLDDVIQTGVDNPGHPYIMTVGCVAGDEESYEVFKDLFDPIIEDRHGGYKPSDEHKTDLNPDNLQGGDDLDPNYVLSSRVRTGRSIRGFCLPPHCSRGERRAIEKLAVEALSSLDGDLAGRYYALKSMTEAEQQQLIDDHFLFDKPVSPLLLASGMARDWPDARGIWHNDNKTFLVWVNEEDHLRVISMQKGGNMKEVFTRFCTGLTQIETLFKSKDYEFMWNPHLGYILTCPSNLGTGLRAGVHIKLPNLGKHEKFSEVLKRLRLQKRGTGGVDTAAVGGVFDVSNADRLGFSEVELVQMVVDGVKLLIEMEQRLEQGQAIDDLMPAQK
binder,measurement,value
"Anti-CKMB 10C5 recombinant antibody (WT) (antibody, V domains shown) VH: DVQLQESGPGLVKPSQTMSLTCTVTGVSITTGTDRWSWIRQFPGNKLEWIGYIFYSGTLTYNPSVTSRTTITRDTSKNQFFLEMNSLTAEDTATYYCARERTYYPYGYFDVFGTGTTVTVSS VL: DIQMNQSPSSLSASLGDTITITCHGSNNINIWLSWYQQKPGNTPKLLIYKGSDIHTGVSSRFSGSGSGTAFTLTISSLQPEDIATYYCQQAQSYAWTWGGGTKLEIK",Kd,77.6 nM
same,koff,0.00512 s⁻¹
same,kon,66000 M⁻¹ s⁻¹
